Like-named read-outs stand apart in the source and are kept apart here. Where no end group is shown, it is not given here. [ ]: non-standard residue; d: D form. pT = C[C@@H](OP(=O)(O)O)[C@H](N)C(=O)O; pS = N[C@@H](COP(=O)(O)O)C(=O)O

Broadly, the Kd is the concentration at which binding is half-saturated.

What all share (assay): FP
Assay [1] concerns the target T1, Rad4-BRCT1,2 segment, wild type (recombinant, fluorescence polarisation) (S. pombe, UniProt P32372 1-186).
T1 chain: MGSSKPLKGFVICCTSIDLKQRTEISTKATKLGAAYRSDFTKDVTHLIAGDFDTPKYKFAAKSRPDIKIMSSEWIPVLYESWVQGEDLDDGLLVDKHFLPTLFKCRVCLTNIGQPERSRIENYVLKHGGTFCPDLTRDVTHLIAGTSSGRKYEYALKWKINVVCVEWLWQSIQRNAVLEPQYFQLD

The target in assay [2] is T2, TOPBP1-BRCT0,1,2 segment, wild type (recombinant, fluorescence polarisation) ( (human and chicken TOPBP1 …)).
T2 chain: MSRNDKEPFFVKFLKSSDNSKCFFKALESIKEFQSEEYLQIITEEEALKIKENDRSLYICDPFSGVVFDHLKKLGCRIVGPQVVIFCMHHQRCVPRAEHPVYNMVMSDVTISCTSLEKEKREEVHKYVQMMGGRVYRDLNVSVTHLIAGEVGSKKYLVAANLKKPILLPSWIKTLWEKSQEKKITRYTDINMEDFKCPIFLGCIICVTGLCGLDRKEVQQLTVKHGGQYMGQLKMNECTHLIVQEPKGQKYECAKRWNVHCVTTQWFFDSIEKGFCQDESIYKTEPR

Assay [3] deals with T3, TOPBP1-BRCT0,1,2 K250E (BRCT2 phosphate-binding site mutant) ( (human and chicken TOPBP1 …)).
T3 chain: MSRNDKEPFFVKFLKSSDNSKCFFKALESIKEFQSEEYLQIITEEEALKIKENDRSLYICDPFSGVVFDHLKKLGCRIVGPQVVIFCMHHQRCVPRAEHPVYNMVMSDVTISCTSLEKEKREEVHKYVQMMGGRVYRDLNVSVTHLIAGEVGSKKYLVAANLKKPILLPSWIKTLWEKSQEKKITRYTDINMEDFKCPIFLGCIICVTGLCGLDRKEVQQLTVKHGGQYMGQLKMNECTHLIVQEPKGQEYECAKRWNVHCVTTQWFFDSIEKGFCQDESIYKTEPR

The target in assay [4] is T2, TOPBP1-BRCT0,1,2 segment, wild type ….
Assay [5] concerns the target T4, S. pombe Nbs1 (S. pombe, UniProt O43070 1-613).
T4 chain: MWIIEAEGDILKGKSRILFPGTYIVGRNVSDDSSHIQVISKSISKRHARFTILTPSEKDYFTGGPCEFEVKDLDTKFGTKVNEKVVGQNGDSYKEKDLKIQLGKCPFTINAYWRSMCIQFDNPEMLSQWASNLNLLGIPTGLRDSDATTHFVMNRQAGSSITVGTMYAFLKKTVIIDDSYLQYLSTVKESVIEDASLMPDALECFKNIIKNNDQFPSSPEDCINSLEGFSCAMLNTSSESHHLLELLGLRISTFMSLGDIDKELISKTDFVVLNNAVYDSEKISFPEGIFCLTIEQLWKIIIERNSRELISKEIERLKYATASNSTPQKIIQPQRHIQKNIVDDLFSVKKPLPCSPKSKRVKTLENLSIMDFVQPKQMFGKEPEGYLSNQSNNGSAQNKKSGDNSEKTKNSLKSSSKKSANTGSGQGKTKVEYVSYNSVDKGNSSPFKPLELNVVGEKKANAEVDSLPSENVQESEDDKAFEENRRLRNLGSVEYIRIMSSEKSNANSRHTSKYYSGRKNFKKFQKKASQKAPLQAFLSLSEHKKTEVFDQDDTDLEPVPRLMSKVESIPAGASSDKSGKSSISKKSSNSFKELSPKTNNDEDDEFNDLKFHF

For assay [6], the target named is T5, TOPBP1-BRCT4,5 segment ( (human and chicken TOPBP1 …)).
T5 chain: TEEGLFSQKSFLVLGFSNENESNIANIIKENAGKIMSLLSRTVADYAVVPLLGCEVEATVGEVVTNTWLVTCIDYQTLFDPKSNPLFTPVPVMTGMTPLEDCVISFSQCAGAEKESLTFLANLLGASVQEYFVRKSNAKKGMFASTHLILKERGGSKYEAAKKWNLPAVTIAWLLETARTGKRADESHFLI

Assay [7] deals with T6, TOPBP1-BRCT7,8 ( (human and chicken TOPBP1 …)).
T6 chain: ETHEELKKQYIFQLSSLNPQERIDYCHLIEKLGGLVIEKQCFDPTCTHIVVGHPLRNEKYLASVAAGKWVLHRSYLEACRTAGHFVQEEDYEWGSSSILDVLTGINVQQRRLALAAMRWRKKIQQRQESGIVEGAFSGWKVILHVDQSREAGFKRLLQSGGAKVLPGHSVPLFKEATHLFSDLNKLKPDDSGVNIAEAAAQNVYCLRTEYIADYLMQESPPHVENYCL

B1: Mdb1 pT113 fluorescein-labelled phosphopeptide (peptide)
peptide: fluorescein-GYGGVMTVPN[pT]PQKPNLQ
modifications: also: phosphothreonine at 113 (T7 or T11)
Regarding B1, the Kd in assay [1] worked out at 1310 nM.

B2: RHNO1 pT202 fluorescein-labelled phosphopeptide (peptide)
peptide: fluorescein-GYGGPVLVKD[pT]PEDKYGI
For the molecule B2, the Kd in assay [2] and in assay [3] was under 200 nM in each case.

B3: Treslin pT969 fluorescein-labelled phosphopeptide (peptide)
peptide: fluorescein-GYGLTKSVAE[pT]PVHKQIS
modifications: also: phosphothreonine at 969 (T5 or T11)
Regarding B3, the dissociation constant (Kd) in assay [4] worked out at 940 nM.

B4: Mdb1 pS216, pT218 fluorescein-labelled phosphopeptide (SDT site) (peptide)
peptide: fluorescein-GYGVEGDHS[pS]D[pT]EEEVVS
On to B4, for which the Kd in assay [5] came out at 820 nM.

B5: BLM pS304 fluorescein-labelled phosphopeptide (peptide)
peptide: fluorescein-GYGDTDFVPP[pS]PEEIISA
modifications: also: phosphoserine at 304 (S11 or S17)
Consider B5, for which, in assay [6], binding was put at a Kd of 3460 nM.

B6: Treslin pS1001 fluorescein-labelled phosphopeptide (peptide)
peptide: fluorescein-GYGDIGVVEE[pS]PEKGDEI
B6: the dissociation constant (Kd) in assay [4] came out at 600 nM.

B7: FANCJ pT1133 fluorescein-labelled phosphopeptide (peptide)
peptide: fluorescein-GYGEDESIYF[pT]PELYDPE
In the case of B7, the Kd in assay [7] was determined as 140 nM.

Values taken from article PMC6175577 (2018).
